Results from patent US20250376511A1 (Sanofi, published 2025).
Read-outs that look alike come from different tables or passages of the source.

How the values were obtained:
[1] = target: T1, Human active C1s (Complement Technology) (human, UniProt P09871 16-688); test: cell-based or functional assay
T1 sequence: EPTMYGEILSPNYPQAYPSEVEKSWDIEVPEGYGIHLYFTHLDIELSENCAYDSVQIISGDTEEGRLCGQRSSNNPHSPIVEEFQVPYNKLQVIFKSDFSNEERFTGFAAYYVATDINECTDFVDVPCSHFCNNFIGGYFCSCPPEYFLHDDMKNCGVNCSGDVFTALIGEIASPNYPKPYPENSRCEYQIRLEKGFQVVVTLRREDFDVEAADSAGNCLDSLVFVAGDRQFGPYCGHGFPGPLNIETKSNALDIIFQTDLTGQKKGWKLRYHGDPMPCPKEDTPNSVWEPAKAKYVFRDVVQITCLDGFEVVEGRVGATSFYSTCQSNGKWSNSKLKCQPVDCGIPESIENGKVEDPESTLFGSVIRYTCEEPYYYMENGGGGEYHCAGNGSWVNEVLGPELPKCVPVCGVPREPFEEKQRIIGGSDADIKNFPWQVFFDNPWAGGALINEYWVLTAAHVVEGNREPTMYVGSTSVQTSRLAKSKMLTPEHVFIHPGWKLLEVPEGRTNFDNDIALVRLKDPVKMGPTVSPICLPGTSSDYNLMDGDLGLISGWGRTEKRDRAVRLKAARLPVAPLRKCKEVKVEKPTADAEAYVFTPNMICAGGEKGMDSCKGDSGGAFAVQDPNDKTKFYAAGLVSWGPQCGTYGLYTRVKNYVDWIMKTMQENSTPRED

[2] = target: T1, Human active C1s (Complement Technology); test: SPRi Carterra LSA, antibody captured on protein A/G, human active C1s as analyte, 25 C, 1:1 fit
Experimental: C1s binding using surface plasmon resonance (SPRi): Analysis of active C1s binding was performed on a Carterra LSA SPRi instrument at 25° C. Protein A/G (Sigma) diluted in 25 mM MES pH 6.0, 0.05% Tween-20 running buffer was covalently immobilized to an HC200M sensor chip using amine coupling. Antibodies were diluted to 0.2 μg/mL in HBS-EP+ buffer and printed in duplicate to the protein A/G surface in the capture 96-array format for 5 min followed by a 1 min baseline in buffer. Human active C1s (Complement Technology) was serially diluted […] from 1 μM to 0.781 nM in running buffer and injected over the captured antibodies for 5 min with a 5 min dissociation time. The surface was regenerated with 10 mM glycine pH 1.5 with two 30 sec injections. Sensorgrams were processed with the Carterra® K.I.T. Inspection Tool and fit to a 1:1 binding model to obtain kinetic constants.
Three variants were selected as viable engineered alternatives to the wild-type anti-aC1s sequence: D32E, D32S, and D32Y. The three variants were expressed as bivalent monospecific anti-aC1s antibodies with human IgG1 and their affinity for aC1s tested by surface plasmon resonance (Table 5).

[3] = target: T1, Human active C1s (Complement Technology); test: cell-based or functional assay; remark: listed apart in the source
[4] = target: T1, Human active C1s (Complement Technology); test: cell-based or functional assay; remark: listed apart in the source
[5] = target: T2, His-tagged recombinant human TfR (produced in-house) (human, UniProt P02786 89-760); test: affinity of bispecific purified from CHO cells (SPR; details not restated)
T2 construct: also called hTfR; transferrin receptor 1

[6] = target: T1, Human active C1s (Complement Technology); test: as above
[7] = target: T3, cynomolgus TfR (cynomolgus, UniProt H9EXL1 89-760 (rhesus entry)); test: as above
T3 construct: also called Cyno TfR; cTfR

[8] = target: T4, cynomolgus aC1s (cynomolgus, UniProt A0A2K5VQX9 16-685); test: as above
T4 construct: also called Cyno aC1s; caC1s
T4 sequence: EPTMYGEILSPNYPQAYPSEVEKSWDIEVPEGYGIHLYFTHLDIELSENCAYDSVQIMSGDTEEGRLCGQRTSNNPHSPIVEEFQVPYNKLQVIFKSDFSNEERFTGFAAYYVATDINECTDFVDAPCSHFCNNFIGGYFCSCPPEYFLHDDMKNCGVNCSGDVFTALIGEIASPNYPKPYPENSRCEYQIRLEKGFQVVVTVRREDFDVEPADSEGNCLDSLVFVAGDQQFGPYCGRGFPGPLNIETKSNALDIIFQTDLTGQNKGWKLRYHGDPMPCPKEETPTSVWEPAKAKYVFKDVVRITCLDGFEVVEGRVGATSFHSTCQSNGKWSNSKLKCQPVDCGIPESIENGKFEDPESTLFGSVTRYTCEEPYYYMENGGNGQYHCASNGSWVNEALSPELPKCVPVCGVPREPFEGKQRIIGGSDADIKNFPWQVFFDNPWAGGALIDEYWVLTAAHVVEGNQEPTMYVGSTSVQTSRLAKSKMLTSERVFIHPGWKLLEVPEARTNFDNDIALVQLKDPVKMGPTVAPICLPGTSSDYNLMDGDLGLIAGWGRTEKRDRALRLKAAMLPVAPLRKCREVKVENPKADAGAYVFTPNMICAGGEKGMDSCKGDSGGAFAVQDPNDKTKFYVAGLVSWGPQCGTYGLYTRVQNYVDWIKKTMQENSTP

T2 sequence (P02786 89-760 limits assumed): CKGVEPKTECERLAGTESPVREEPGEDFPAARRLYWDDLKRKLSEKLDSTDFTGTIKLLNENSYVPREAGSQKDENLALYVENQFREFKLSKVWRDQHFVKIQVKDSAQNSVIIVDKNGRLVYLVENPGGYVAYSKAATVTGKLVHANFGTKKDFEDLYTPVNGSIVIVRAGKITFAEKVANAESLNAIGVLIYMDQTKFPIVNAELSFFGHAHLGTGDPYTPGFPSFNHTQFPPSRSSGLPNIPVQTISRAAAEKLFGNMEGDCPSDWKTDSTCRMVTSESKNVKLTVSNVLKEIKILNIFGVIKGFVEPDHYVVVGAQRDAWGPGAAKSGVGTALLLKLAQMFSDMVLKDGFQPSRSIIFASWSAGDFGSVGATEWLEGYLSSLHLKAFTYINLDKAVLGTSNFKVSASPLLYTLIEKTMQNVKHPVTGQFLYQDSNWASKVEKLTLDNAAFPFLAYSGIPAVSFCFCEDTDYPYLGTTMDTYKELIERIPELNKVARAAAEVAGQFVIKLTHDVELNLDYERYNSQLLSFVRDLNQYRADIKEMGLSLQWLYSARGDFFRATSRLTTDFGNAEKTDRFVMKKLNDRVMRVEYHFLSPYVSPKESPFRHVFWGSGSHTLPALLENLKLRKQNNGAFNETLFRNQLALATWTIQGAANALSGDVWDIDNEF
T3 sequence (chain, as listed by the source): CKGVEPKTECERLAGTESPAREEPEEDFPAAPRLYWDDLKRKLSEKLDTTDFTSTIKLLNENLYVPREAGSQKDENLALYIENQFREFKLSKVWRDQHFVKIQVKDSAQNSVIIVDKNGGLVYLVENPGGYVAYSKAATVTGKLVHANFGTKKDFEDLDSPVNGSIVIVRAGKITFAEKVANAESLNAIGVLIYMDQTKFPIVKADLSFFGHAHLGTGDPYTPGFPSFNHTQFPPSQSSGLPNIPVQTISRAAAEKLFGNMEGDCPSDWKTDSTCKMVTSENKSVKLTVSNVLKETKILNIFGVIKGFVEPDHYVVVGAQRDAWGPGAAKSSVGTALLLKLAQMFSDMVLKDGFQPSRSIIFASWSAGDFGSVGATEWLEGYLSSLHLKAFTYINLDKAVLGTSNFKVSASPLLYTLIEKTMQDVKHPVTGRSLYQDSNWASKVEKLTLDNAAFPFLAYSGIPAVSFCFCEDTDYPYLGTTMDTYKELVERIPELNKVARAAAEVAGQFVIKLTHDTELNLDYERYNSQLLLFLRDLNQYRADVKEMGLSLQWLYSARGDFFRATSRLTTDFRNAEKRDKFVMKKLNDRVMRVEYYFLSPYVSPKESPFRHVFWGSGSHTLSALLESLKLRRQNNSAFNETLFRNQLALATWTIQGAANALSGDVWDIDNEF

Binder	IC50, Wieslab Complement Pathway Assay (classical pathway, 1% NHS) [1] [µg/mL]	Kd [2] [nM]	koff [2] [s⁻¹]	kon [2] [M⁻¹ s⁻¹]	IC50, Wieslab Complement Pathway Assay (classical pathway, 1% NHS) [3] [µg/mL]	IC50, Wieslab Complement Pathway Assay (batch 1) [4] [µg/mL]	IC50, Wieslab Complement Pathway Assay (batch 2) [4] [µg/mL]	IC50, Wieslab Complement Pathway Assay [4] [µg/mL]	IC90, Wieslab Complement Pathway Assay [4] [µg/mL]	Kd [5] [nM]	Kd [6] [nM]	Kd [7] [nM]	Kd [8] [nM]
SAR445088 (antibody, V domains shown, sulfated tyrosine (Y36) on the light chain, Bivalent monospecific anti-aC1s antibody; also called BIVV020; the wild-type antibody) VH: QVQLVQSGAEVKKPGASVKLSCTASGFNIKDDYIHWVKQAPGQGLEWIGRIDPADGHTKYAPKFQVKVTITADTSTSTAYLELSSLRSEDTAVYYCARYGYGREVFDYWGQGTTVTVSS VL: DIVLTQSPDSLAVSLGERATISCKASQSVDYDGDSYMNWYQQKPGQPPKILIYDASNLESGIPARFSGSGSGTDFTLTISSLEPEDFAIYYCQQSNEDPWTFGGGTKVEIK	0.77	2.5	0.0033	1.3e+06	1.07	0.45	0.63	–	–	–	–	–	–
bispecific anti-aC1s (L4H5)/anti-TfR (531v25.v6) antibody (bispecific antibody, human IgG4 S228P, kappa, Purified from CHO cells; monovalent for aC1s) heavy 1: QVQLVQSGAEVKKPGASVKLSCTASGFNIKDDYIHWVKEAPGQGLEWIGRIDPADGHTKYAPKFQVKVTITAATSTSTAYLQLSSLRSEDTAVYYCARYGYGREVFDYWGQGTTVTVSSASTKGPSVFPLAPCSRSTSESTAALGCLVKDYFPEPVTVSWNSGALTSGVHTFPAVLQSSGLYSLSSVVEVPSSSLGTKTYTCNVDHKPSNTKVDERVESDYGPPCPPCPAPEFEGGPSVFLFPPKPKDTLMISRTPEVTCVVVDVSQEDPEVQFNWYVDGVEVHNAKTKPREEQFNSTYRVVSVLTVLHQDWLNGKEYKCKVSNKGLPSSIEKTISKAKGQPREPQVCTLPPSQEEMTKNQVSLSCAVKGFYPSDIAVEWESNGQPENNYKTTPPVLDSDGSFFLVSRLTVDKSRWQEGNVFSCSVLHEALHSRFTQKSLSLSLG light 1: DIVMTQSPDSLAVSLGERATISCKSSQSVDYEGDSYLNWYQKKPGQPPKLLIYDASNLESGVPDRFSGSGSGTDFTLTISSLQAEDVAVYYCQQSNEDPWTFGQGTKVEIKRTVAAPAVFIFPPSKKQLKSGTASVVCLLKNFYPREAKVQWKVDNALQSGNSQESVTEQDSKDSTYSLSSTLTLSKADYEKHKVYACEVTHQGLSSPVTKSFNRGEC heavy 2: QVQLVQSGAEVKKPGASVKVSCKASGYTFTRYYLNWVRKAPGQGLEWIGMIDPSVSETHYAQKFQGRATLTVDKSTSTAYMELSSLRSEDTAVYYCSQIRLPYYYAMDSWGQGTTVTVSSASTKGPSVFPLAPCSRSTSESTAALGCLVKDYFPEPVTVSWNSGALTSGVHTFPAVLQSSGLYSLSSVVTVPSSSLGTKTYTCNVDHKPSNTKVDKRVESKYGPPCPPCPAPEFEGGPSVFLFPPKPKDTLMISRTPEVTCVVVDVSQEDPEVQFNWYVDGVEVHNAKTKPREEQFNSTYRVVSVLTVLHQDWLNGKEYKCKVSNKGLPSSIEKTISKAKGQPREPQVYTLPPCQEEMTKNQVSLWCLVKGFYPSDIAVEWESNGQPENNYKTTPPVLDSDGSFFLYSRLTVDKSRWQEGNVFSCSVLHEALHSHYTQKSLSLSLG light 2: DIQMTQSPSSLSASVGDRVTITCRASQDIESFLNWYQEKPGKAPKLLIYYTSRLQSGVPSRFSGSGSGTDYTLTISSLQPEDFATYYCQQGNTLPRTFGGGTKVEIKRTVAAPSVFIFPPSDEQLKSGTASVVCLLNNFYPREAKVQWKVDNALQSGNSQESVTEQDSKDSTYSLSSTLTLSKADYEKHKVYACEVTHQGLSSPVTKSFNRGEC	–	–	–	–	–	–	–	1.04	7.55	39.3	2.26	72.5	0.252
bispecific anti-aC1s (L2)/anti-TfR (531v25.v6) antibody (bispecific antibody, human IgG4 S228P, kappa, Purified from CHO cells; monovalent for aC1s) heavy 1: QVQLVQSGAEVKKPGASVKLSCTASGFNIKDDYIHWVKEAPGQGLEWIGRIDPADGHTKYAPKFQVKVTITADTSTSTAYLELSSLRSEDTAVYYCARYGYGREVFDYWGQGTTVTVSSASTKGPSVFPLAPCSRSTSESTAALGCLVKDYFPEPVTVSWNSGALTSGVHTFPAVLQSSGLYSLSSVVEVPSSSLGTKTYTCNVDHKPSNTKVDERVESDYGPPCPPCPAPEFEGGPSVFLFPPKPKDTLMISRTPEVTCVVVDVSQEDPEVQFNWYVDGVEVHNAKTKPREEQFNSTYRVVSVLTVLHQDWLNGKEYKCKVSNKGLPSSIEKTISKAKGQPREPQVCTLPPSQEEMTKNQVSLSCAVKGFYPSDIAVEWESNGQPENNYKTTPPVLDSDGSFFLVSRLTVDKSRWQEGNVFSCSVLHEALHSRFTQKSLSLSLG light 1: DIVMTQSPDSLAVSLGERATISCKSSQSVDYEGDSYLNWYQKKPGQPPKLLIYDASNLESGVPDRFSGSGSGTAFTLTISSLQAEDVAVYYCQQSNEDPWTFGQGTKVEIKRTVAAPAVFIFPPSKKQLKSGTASVVCLLKNFYPREAKVQWKVDNALQSGNSQESVTEQDSKDSTYSLSSTLTLSKADYEKHKVYACEVTHQGLSSPVTKSFNRGEC heavy 2: QVQLVQSGAEVKKPGASVKVSCKASGYTFTRYYLNWVRKAPGQGLEWIGMIDPSVSETHYAQKFQGRATLTVDKSTSTAYMELSSLRSEDTAVYYCSQIRLPYYYAMDSWGQGTTVTVSSASTKGPSVFPLAPCSRSTSESTAALGCLVKDYFPEPVTVSWNSGALTSGVHTFPAVLQSSGLYSLSSVVTVPSSSLGTKTYTCNVDHKPSNTKVDKRVESKYGPPCPPCPAPEFEGGPSVFLFPPKPKDTLMISRTPEVTCVVVDVSQEDPEVQFNWYVDGVEVHNAKTKPREEQFNSTYRVVSVLTVLHQDWLNGKEYKCKVSNKGLPSSIEKTISKAKGQPREPQVYTLPPCQEEMTKNQVSLWCLVKGFYPSDIAVEWESNGQPENNYKTTPPVLDSDGSFFLYSRLTVDKSRWQEGNVFSCSVLHEALHSHYTQKSLSLSLG light 2: DIQMTQSPSSLSASVGDRVTITCRASQDIESFLNWYQEKPGKAPKLLIYYTSRLQSGVPSRFSGSGSGTDYTLTISSLQPEDFATYYCQQGNTLPRTFGGGTKVEIKRTVAAPSVFIFPPSDEQLKSGTASVVCLLNNFYPREAKVQWKVDNALQSGNSQESVTEQDSKDSTYSLSSTLTLSKADYEKHKVYACEVTHQGLSSPVTKSFNRGEC	–	–	–	–	–	–	–	1.37	10.2	29.9	3.19	52.8	0.243
